± gives the uncertainty stated by the source.
B1: Transcription elongation factor A N-terminal and central domain-containing protein, residues 30 to 77; numbered along this chain, Q8N8B7 (parent)
chain: LTELETIYVTKEHLQETDVVRAVYRVLKNCPSVALKKKAKCLLSKWKA

Variants of: B1
Assay: abundance fitness (aPCA) (normalised: wild type 0, dead -1); higher = more abundant; growth selection in yeast, the domain comes from the species named
Details: Homo sapiens

Variant	abundance fitness
LTELETIYVTKEHRQETDVVRAVYRVLKNCPSVALKKKAKCLLSKWKA	0.21 ± 0.057
LTELETIYVTKEHCQETDVVRAVYRVLKNCPSVALKKKAKCLLSKWKA	0.061 ± 0.097
LTELETIYVTKEHPQETDVVRAVYRVLKNCPSVALKKKAKCLLSKWKA	-0.049 ± 0.12
LTELETIYVTKEHLQETPVVRAVYRVLKNCPSVALKKKAKCLLSKWKA	-0.154 ± 0.14
LTELETIYVTKEHLQETQVVRAVYRVLKNCPSVALKKKAKCLLSKWKA	-0.07 ± 0.12
LTELETIYVTKEHLQETFVVRAVYRVLKNCPSVALKKKAKCLLSKWKA	0.169 ± 0.17
LTELETIYVTKEHLQETIVVRAVYRVLKNCPSVALKKKAKCLLSKWKA	-0.263 ± 0.26
LTELETIYVTKEHLQETKVVRAVYRVLKNCPSVALKKKAKCLLSKWKA	-0.136 ± 0.11
LTELETIYVTKEHLQETVVVRAVYRVLKNCPSVALKKKAKCLLSKWKA	-0.094 ± 0.083
LTELETIYVTKEHLQETEVVRAVYRVLKNCPSVALKKKAKCLLSKWKA	-0.382 ± 0.1
LTELETIYVTKEHLQETMVVRAVYRVLKNCPSVALKKKAKCLLSKWKA	0.384 ± 0.14
LTELETIYVTKEHLQETCVVRAVYRVLKNCPSVALKKKAKCLLSKWKA	-0.09 ± 0.19
LTELETIYVTKEHLQETAVVRAVYRVLKNCPSVALKKKAKCLLSKWKA	0.098 ± 0.1
LTELETIYVTKEHLQETSVVRAVYRVLKNCPSVALKKKAKCLLSKWKA	0.353 ± 0.084
LTELETIYVTKEHLQETHVVRAVYRVLKNCPSVALKKKAKCLLSKWKA	0.049 ± 0.14
LTELETIYVTKEHLQETRVVRAVYRVLKNCPSVALKKKAKCLLSKWKA	0.24 ± 0.084
LTELETIYVTKEHLQETGVVRAVYRVLKNCPSVALKKKAKCLLSKWKA	0.354 ± 0.069
LTELETIYVTKEHLQETWVVRAVYRVLKNCPSVALKKKAKCLLSKWKA	0.172 ± 0.12
LTELETIYVTKEHLQETTVVRAVYRVLKNCPSVALKKKAKCLLSKWKA	0.158 ± 0.1
LTELETIYVTKEHLQETYVVRAVYRVLKNCPSVALKKKAKCLLSKWKA	0.057 ± 0.14
LTELETIYVTKEHLQETLVVRAVYRVLKNCPSVALKKKAKCLLSKWKA	-0.077 ± 0.097
LTELETIYVTKEELQETDVVRAVYRVLKNCPSVALKKKAKCLLSKWKA	0.262 ± 0.12
LTELETIYVTKERLQETDVVRAVYRVLKNCPSVALKKKAKCLLSKWKA	-0.126 ± 0.066
LTELETIYVTKELLQETDVVRAVYRVLKNCPSVALKKKAKCLLSKWKA	-0.842 ± 0.078
LTELETIYVTKESLQETDVVRAVYRVLKNCPSVALKKKAKCLLSKWKA	0.02 ± 0.063
LTELETIYVTKENLQETDVVRAVYRVLKNCPSVALKKKAKCLLSKWKA	0.07 ± 0.078
LTELETIYVTKEFLQETDVVRAVYRVLKNCPSVALKKKAKCLLSKWKA	-0.428 ± 0.091

Variant	abundance fitness
LTELETIYVTKECLQETDVVRAVYRVLKNCPSVALKKKAKCLLSKWKA	-0.224 ± 0.079
LTELETIYVTKEILQETDVVRAVYRVLKNCPSVALKKKAKCLLSKWKA	-0.668 ± 0.099
LTELETIYVTKEGLQETDVVRAVYRVLKNCPSVALKKKAKCLLSKWKA	-0.232 ± 0.072
LTELETIYVTKETLQETDVVRAVYRVLKNCPSVALKKKAKCLLSKWKA	0 ± 0.071
LTELETIYVTKEKLQETDVVRAVYRVLKNCPSVALKKKAKCLLSKWKA	0.106 ± 0.083
LTELETIYVTKEQLQETDVVRAVYRVLKNCPSVALKKKAKCLLSKWKA	-0.078 ± 0.086
LTELETIYVTKEMLQETDVVRAVYRVLKNCPSVALKKKAKCLLSKWKA	-0.133 ± 0.084
LTELETIYVTKEVLQETDVVRAVYRVLKNCPSVALKKKAKCLLSKWKA	-0.698 ± 0.094
LTELETIYVTKEYLQETDVVRAVYRVLKNCPSVALKKKAKCLLSKWKA	-0.479 ± 0.073
LTELETIYVTKEHLDETDVVRAVYRVLKNCPSVALKKKAKCLLSKWKA	-0.27 ± 0.13
LTELETIYVTKEHLTETDVVRAVYRVLKNCPSVALKKKAKCLLSKWKA	-0.213 ± 0.12
LTELETIYVTKEHLWETDVVRAVYRVLKNCPSVALKKKAKCLLSKWKA	0.069 ± 0.096
LTELETIYVTKEHLLETDVVRAVYRVLKNCPSVALKKKAKCLLSKWKA	-0.352 ± 0.084
LTELETIYVTKEHLIETDVVRAVYRVLKNCPSVALKKKAKCLLSKWKA	-0.46 ± 0.15
LTELETIYVTKEHLFETDVVRAVYRVLKNCPSVALKKKAKCLLSKWKA	-0.212 ± 0.16
LTELETIYVTKEHLHETDVVRAVYRVLKNCPSVALKKKAKCLLSKWKA	-0.138 ± 0.17
LTELETIYVTKEHLPETDVVRAVYRVLKNCPSVALKKKAKCLLSKWKA	0.134 ± 0.15
LTELETIYVTKEHLAETDVVRAVYRVLKNCPSVALKKKAKCLLSKWKA	-0.088 ± 0.081
LTELETIYVTKEHLCETDVVRAVYRVLKNCPSVALKKKAKCLLSKWKA	-0.002 ± 0.12
LTELETIYVTKEHLKETDVVRAVYRVLKNCPSVALKKKAKCLLSKWKA	0.209 ± 0.093
LTELETIYVTKEHLSETDVVRAVYRVLKNCPSVALKKKAKCLLSKWKA	-0.208 ± 0.083
LTELETIYVTKEHLRETDVVRAVYRVLKNCPSVALKKKAKCLLSKWKA	0.093 ± 0.071
LTELETIYVTKEHLYETDVVRAVYRVLKNCPSVALKKKAKCLLSKWKA	-0.562 ± 0.18
LTELETIYVTKEHLNETDVVRAVYRVLKNCPSVALKKKAKCLLSKWKA	-0.388 ± 0.16
LTELETIYVTKEHLVETDVVRAVYRVLKNCPSVALKKKAKCLLSKWKA	-0.527 ± 0.095
LTELETIYVTKEHLEETDVVRAVYRVLKNCPSVALKKKAKCLLSKWKA	-0.016 ± 0.1
LTELETIYVTKEHLMETDVVRAVYRVLKNCPSVALKKKAKCLLSKWKA	-0.452 ± 0.13

Source: the Human Domainome abundance scans (Beltran et al. 2025)
